The source of these data is patent publication US20240368300A1 (UCME BIOSCIENCE S R L, published 2024).

Test [1] has as its target T1, recombinant soluble human CD93 extracellular domain fused to a 6xHis tag (human, UniProt Q9NPY3 24-580).
T1 construct: extracellular domain; also called recombinant CD93; soluble CD93 protein
T1 sequence: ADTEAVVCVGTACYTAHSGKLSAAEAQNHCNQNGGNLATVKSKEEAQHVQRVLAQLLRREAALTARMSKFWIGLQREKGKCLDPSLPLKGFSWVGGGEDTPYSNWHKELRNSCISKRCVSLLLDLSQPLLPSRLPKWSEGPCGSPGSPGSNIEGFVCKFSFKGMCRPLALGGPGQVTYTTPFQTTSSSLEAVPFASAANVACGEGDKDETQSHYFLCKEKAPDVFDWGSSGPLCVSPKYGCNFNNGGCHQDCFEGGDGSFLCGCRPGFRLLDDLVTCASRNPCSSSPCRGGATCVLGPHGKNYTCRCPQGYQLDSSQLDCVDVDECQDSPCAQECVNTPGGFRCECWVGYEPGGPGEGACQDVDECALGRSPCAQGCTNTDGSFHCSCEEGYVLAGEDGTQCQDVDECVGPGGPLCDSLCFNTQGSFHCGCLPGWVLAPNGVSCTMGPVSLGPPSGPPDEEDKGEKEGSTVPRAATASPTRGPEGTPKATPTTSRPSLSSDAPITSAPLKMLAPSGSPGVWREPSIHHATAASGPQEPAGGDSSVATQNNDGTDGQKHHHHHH
In words: SPR (BIAcore), 4E1 immobilized on chip, recombinant CD93 injected, 1:1 fit. The method, then: The binding analysis was performed using a BIAcore 3000 equipped with a CM5 sensor chip. Briefly, 4E1 antibody was immobilized via amine groups on a CM5 sensor chip following standard procedures (flow rate 5 μl/min). For the immobilization, 4E1 diluted in 10 mM Na acetate pH 4.0 at the concentration of 10 μg/ml was injected for 360 sec over the dextran matrix on flow cell, which had been previously activated with a mixture of EDC-NHS for 420 sec. After injection of the antibody, a pulse of Ethanolamine 1M was performed to neutralize activated groups. A reference flow cell to be used as blank, was simultaneously subjected to identical procedures, but the injection of Antibody, which was substituted with injection of dilution buffer alone (HBS-EP+). Recombinant purified CD93 protein was diluted in HBS-EP+ at different concentration (1 μg/ml, 2.5 μg/ml, […] and 20 μg/ml) and injected for 180 s at a flow rate of 60 μl/min on flow cell 4 and on reference flow cell 3. […] Sensorgrams illustrated in the figure are obtained by subtraction from sensorgrams on Fc4 of those obtained on Fc3. Kinetic rates were calculated applying a 1:1 binding as fitting model using the Bia T200 evaluation software 2.0.1
For orientation: SPR reads the build-up and loss of mass on a sensor chip optically.

The next test deals with T2, human full-length CD93 (human, UniProt Q9NPY3 22-652).
T2 construct: whole, on cells; Used in two settings; also called human CD93 protein
T2 sequence (looked up): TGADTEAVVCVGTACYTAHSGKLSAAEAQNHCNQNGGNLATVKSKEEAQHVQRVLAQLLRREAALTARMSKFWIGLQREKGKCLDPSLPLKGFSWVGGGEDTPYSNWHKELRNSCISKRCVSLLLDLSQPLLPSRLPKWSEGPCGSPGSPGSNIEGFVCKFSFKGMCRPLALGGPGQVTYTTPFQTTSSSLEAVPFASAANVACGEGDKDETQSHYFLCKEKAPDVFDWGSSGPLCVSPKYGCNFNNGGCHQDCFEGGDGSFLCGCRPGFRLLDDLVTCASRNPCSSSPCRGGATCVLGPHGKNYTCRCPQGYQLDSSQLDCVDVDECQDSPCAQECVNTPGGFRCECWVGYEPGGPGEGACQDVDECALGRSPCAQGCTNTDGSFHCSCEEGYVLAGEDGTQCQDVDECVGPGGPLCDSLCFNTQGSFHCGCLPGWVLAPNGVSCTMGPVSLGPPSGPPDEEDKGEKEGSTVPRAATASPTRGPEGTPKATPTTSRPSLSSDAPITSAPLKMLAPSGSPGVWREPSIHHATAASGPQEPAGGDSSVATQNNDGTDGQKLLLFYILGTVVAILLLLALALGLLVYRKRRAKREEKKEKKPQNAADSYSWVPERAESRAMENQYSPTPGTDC
Kind of test: immunofluorescence on fixed, permeabilized late spreading HUVECs. The method, then:
Zip Alexa Fluor Rapid Antibody Labeling kit (Thermo Fisher Scientific) was used to efficiently and quickly label the mAb 4E1 with Alexa Fluor 488 following the manufacturer's instructions. Briefly, 10 μl of 1 M sodium bicarbonate solution were added to 100 μl of 4E1 solution (1 mg/ml). Next, the antibody solution was incubated for 15 min at room temperature with the fluorochrome solution (Component B) and used in immunofluorescence experiments.
Cells were seeded onto gelatin-coated glass coverslips and fixed in 3% paraformaldehyde for 15 min at room temperature during the late spreading phase. Samples were permeabilized with 0.1% Triton X-100 in PBS, and blocked with 0.3% w/v BSA in PBS, each for 15 min at room temperature. Next, cells were washed with PBS and incubated 1 h at room temperature with Alexa Fluor 488-labeled 4E1 and rabbit anti-MMRN2 antibodies. Then, samples were washed three times with PBS/0.1% Tween-20 and incubated with secondary Alexa Fluor 568-labeled anti-rabbit antibodies (Thermo Fisher Scientific), diluted at 25 μg/mL in PBS/0.1% Tween-20. After washing, coverslips were mounted with Mowiol mounting medium. Fluorescent images were captured using a Leica TCS SP2 AOBS confocal laser-scanning microscope and overlaid images were produced. A Leica HCX PL APO Ibd.BL 63×/1.40 oil objective was used. […]

Test [2] concerns the target T1, recombinant soluble human CD93 …. In words: SPR (BIAcore), rec4E1 immobilized on chip, recombinant CD93 injected, 1:1 fit. The method, then:
The binding analysis was performed using a BIAcore 3000 equipped with a CM5 sensor chip. Briefly, rec4E1 or 4E1 antibodies were immobilized via amine groups on a CM5 sensor chip following standard procedures. For the immobilization, the antibody diluted in 10 mM Na acetate pH 4.0 at the concentration of 10 μg/ml was injected for 360 sec over the dextran matrix on flow cell, which had been previously activated with a mixture of EDC-NHS for 420 sec. After injection of the antibody, a pulse of Ethanolamine 1 M was used to neutralize activated groups. A reference flow cell to be used as blank was simultaneously subjected to identical procedures, but the antibody was substituted with dilution buffer (HBS-EP+). Recombinant purified CD93 protein was diluted in HBS-EP+ at different concentration (10, 25, 50, 100, 250, and 500 ng/mL) and injected for 180 s at a flow rate of 60 μl/min on all flow cells. […] Kinetic rates were calculated applying a 1:1 binding as fitting model using the Bia T200 evaluation software 2.0.1.

B1: anti-CD93 monoclonal antibody 4E1 (from hybridoma) (antibody, IgG1, V domains shown)
VH: QEQLQQPGTELVKPGASVRLSCKTSGYTFASYTLHWVKQTPGQGLDWIGAIYPGNGDTSYNQKFKDKATLTADKSSSTAYMQLSNLTSEDSAVYYCARLDWYFDLWGAGTTVTVS
VL: DIVLTQSPTSLAVSLGQRATISCKASQSVDYDGDSYMNWYQQKPGQPPRLLIYAASNLESGIPARFSGSGSGTDFTLNIHPVEEEDAATYYCQQNNEDPRTFGGGTKLEIK
notes: Mouse hybridoma antibody, full length, isotype IgG1 with k light chain; also called mAb 4E1; anti-CD93 4E1 mAb
As for B1, in test [1], the Kd (usually the constant that tells how readily two partners part at equilibrium) was determined as 0.45 nM.

B2: Alexa Fluor 488-labeled 4E1 (antibody, V domains shown)
VH: B1 VH
VL: B1 VL
modifications: Alexa Fluor 488 dye conjugated to the antibody (site and chain not stated)
notes: mAb 4E1 (mouse IgG1 k) labelled with the Zip Alexa Fluor Rapid Antibody Labeling kit; also called conjugated 4E1
Take B2: the binding result with human full-length CD93 was “binds”.

B3: recombinant anti-CD93 monoclonal antibody rec4E1 (antibody, V domains shown)
VH: B1 VH
VL: B1 VL
notes: Whole recombinant IgG1 expressed in CHO cells from the pTRIOZ vector; The light chain constant region is not described; also called recombinant 4E1
On to B3, for which the Kd in test [2] came out at 0.00509 nM.
